From US20220256794A1, “TERPENE SYNTHASES AND TRANSPORTERS” (The State of Israel, Ministry of Agriculture & Rural …, priority 2019, published 2022)

Tests used:
tobacco BY-2 cells [1] = assay: CBD-induced cell death of tobacco BY-2 cells (FDA fluorescence); format: cell-based; conditions: 0.5 mM CBD
Excerpt: (§1) For tobacco, the ABC and PTR Transporter genes were cloned into a plant binary expression vector (pGreen 0029) via Agrobacterium mediated transformation as previously described [Cohen, S. et at, Nat. Commun. (2014) 5:4026]. These genes were cloned between the cauliflower mosaic virus (CaMl,) 35S promoter and the polyadenylation signal from the nopaline synthase gene and inserted into tobacco BY2 cells and plants (var. Samson) via stable transformation..
The toxic effect and cell death activity of terpenes and cannabinoids in tobacco was assessed on cell cultures as follows: 7-day-old suspension cultured BY-2 tobacco cells at a 5-fold dilution in logarithmic growth phase, incubated in Gamborg B5 medium, was incubated in the presence of 0.5 mM CBD for 48 hours as previously described [Sirikantaramas S. et al., Plant Cell Physiol. (2005) 46:1578-1582].
Cell death in the samples was evaluated using the cell viability indicator fluorescein diacetate (FDA, Sigma-Aldrich). Cell suspension (2.5 mL) was stained with 50 μL of 0.5% fluorescein diacetate (FDA) dissolved in acetone for 10 min. The cells were rinsed three times with I mL isotonic medium to remove excess staining solution. Viability was assessed immediately using an Olympus BX50 fluorescence microscope equipped with a suitable barrier filter (excitation 460-490 nm and emission 510 nm). FDA staining of viable cells results in bright green fluorescence, while nonviable cells remain colorless.

yeast cells [2] = assay: Yeast growth (turbidity A600) in the presence of CBD; format: cell-based, Saccharomyces cerevisiae (strain Y1HGold); conditions: 0.5 mM CBD; for inhibition of yeast growth in response to CBD, transporter-expressing yeast vs control yeast: 7-12 hours
Procedure: (§2) The genes were expressed in yeast and tobacco. For yeast, the ABC and PTR Transporter genes were synthesized by the TWIST Co, cloned and expressed (individually) in the yeast expression vector pESC-URA (Agilent Technologies) for expression under the yeast native gal-10 promoter. Competent Saccharomyces cerevisiae (strain Y1HGold, CloneTech) cells were prepared, transformed by each of the resulting vector and selected on yeast synthetic media lacking Uracil as previously described [GietzR. D., Methods Mol. Biol. (2014) 1205:1-12].
An alternative method is to measure the yeast growth as a function of turbidity. Transformed yeast cells were grown on URA-glucose broth at 30° C. at 200 RPM, and after 24 hours 100 μl was used to inoculate 5 ml of URA-galactose broth in the same conditions till O.D.600 of 1.5. The yeast was further diluted to OD600=0.05 with 10 ml URA-galactose, and divided into two 5 ml aliquots into separate 50 ml falcon tubes. The first falcon (control) was added 78 μl acetonitrile (the solvent that the CBD was dissolved in), and the second one was added 78 μl CBD solution in acetonitrile (final CBD concentration=0.5 mM). […]

tobacco BY-2 cells [3] = assay: Uptake of CBD into tobacco BY-2 cells; format: cell-based; conditions: 0.5 mM CBD
Excerpt: as §1
[…] The pellet was weighed and underwent HPLC analysis to determine the pellet CBD content, as indicated above.

yeast cells [4] = assay: Uptake of CBD into yeast cells; format: cell-based, Saccharomyces cerevisiae (strain Y1HGold); conditions: 0.5 mM CBD; for net uptake of CBD into yeast cells compared to control (empty vector) yeast: three hour incubation, FIG. 3A and FIG. 4
Procedure: as §2
An additional strategy for determining transporter function is to measure the amount of exogenous CBD taken up and incorporated into the cells.
Transformed yeast cells were grown on URA-glucose broth at 30° C. at 200 RPM, and after 24 hours 100 μl was used to inoculate 5 ml of URA-galactose broth in the same conditions till OD600 of […]. The yeast was incubated with 0.5 mM CBD for 2-8 hours in 30° C. at 100 RPM, then centrifuged at 15000 g for 1 minute, and washed twice with 1 ml distilled water. The pellet was weighed and underwent HPLC analysis to determine the pellet's CBD content. The pellet was extracted in 1 ml methanol, and following centrifugation and filter was analyzed by HPLC using a diode-array detector and CBD was quantified against a commercial standard.

C=C(C)[C@@H]1CCC(C)=C[C@H]1c1c(O)cc(CCCCC)cc1O [CBD, Cannabidiol, reference compound]
fluorescence (FDA viability) of control BY2 cells in the presence of CBD (tobacco BY-2 cells [1]; control BY2 cells, FIG. 6A top): small decrease | growth with CBD as % of growth without CBD (yeast cells [2]; control (empty vector) yeast, 7-12 hours after initiation, FIG. 2): 42%

B1: T-790-1: Cannabis ABC-B transporter gene product, amino acid SEQ ID NO: 46 (protein)
chain: MDNKTNKHRGGNGDGDDNEDQDQEDTKKNNNNNNSNKVSLLKLFSFADFYDYVLMGIGTIGAIIHGASVPIFFIFFGKLINVIGMAYLFPKEASHKVAKYSLDFVYLSIAILFSSWTEVACWMHTGERQAAKMRMAYLRAMLSQDISLFDTEASTGEVISAITSDIIVVQDALSEKVGNFLHYISRFVVGFIVGFARVWQISLVTLSIVPLIALAGGVYAYIATGLIARVRKSYVKAGEIAEEVIGNVRTVQAFAGEEKAVKMYTSALAHTYMYGRKAGLAKGLGLGFMHCTLFLSWSLLVWYVSIVVHKSIANGGESFTTMLNVVIAGLSLGQAALDISAFVRAKAAAYPIFAMIERNTASKSSAMSGRKLGKLEGHIQFNNVTFSYPSRPDVTIFNKLSLDIPSGKIVALVGGSGSGKSTVISLIERFYEPLSGEILLDGNNIKELDLKWMRQQIGLVNQEPALFATSIRENILYGKDEASLDEITRAAKLSEAISFINNLPERFETQVGERGIQLSGGQKQRIAISRAIVKNPSILLLDEATSALDAESEKSVQEALDRVMVGRTTVVVAHRLSTIRNADIIAVVQEGKIVETGCHDELISNPNSVYSSLVQLQEAAPLQRNSSLGRPPSIKFSRELSRTTTSFGASFRSDKDSISRVGADGGAVEPVKTTNVSAKRLYSMIGPDWLYGLCGTICAFIAGAQMPLFALGISHALVSYYMDWDTTKHEVKKISILFCCGAVVTVIVHGIEHLCFGTMGERLTLRVRERMFSAMLRNEIAWFDDTNNTSSMLSSRLESDATLLRTIVVDRSTILLQNVGLVVASFIIAFLLNWRITLVVLATYPLVISGHISEKLFMQGYGGNLSKAYLKANMLAGEAVSNIRTVAAFCAEQKVLDLYARELVEPSKRSFTRGQIAGIFYGISQFFIFSSYGLALWYGSVLMGKELSSFKSVMKSFMVLIVTALAMGETLALAPDLLKGNQMVASVFEVLDRKTEVSGDSGEELASVDGTIELRDIHFSYPSRPDVVIFKDFNLKVRSGKSMALVGQSGSGKSSVISIILRFYDPTSGKVLIDGKDMKKLKLKSLRKHIGLVQQEPALFATSIYENILYGKEGASESEVIEAAKLANAHSFISALPEGYSTKVGERGVQLSGGQRQRVAIARAVLKNPEILLLDEATSALDVESERVVQQALDRLMKNRTTIMVAHRLSTIKNADQISVIQDGKIIEQGTHSTLIDNTNGPYYKLINIQQQQQQQL
modifications: ABC+PTR Transporter amino acid sequence (of the 12 identified gene products)
effect on the uptake of CBD in tobacco BY-2 cells (tobacco BY-2 cells [3]; 5 hour uptake, FIG. 7): strong effect | inhibition of yeast growth in response to CBD, transporter-expressing yeast vs control yeast (yeast cells [2]; FIG. 2): reduced inhibition of growth | net uptake of CBD into yeast cells compared to control (empty vector) yeast (yeast cells [4]): reduced net uptake of CBD

B2: T-AG0100-1: Cannabis PTR/NRT transporter gene product, amino acid SEQ ID NO: 53 (protein)
chain: MNMEVMSRDFDQSGGGKRGGNRAAFFVYIMEGLESMAFISNSASLVIYFFSYMNYSLTKSSTMLTNLLGTATLLSLLGGFISDTYLTRFATTLIFASIELMGYIVLLVQAHRSDLRPPKCLSITHQCEGASAGEAAILYTGLYLMALGTGGVKAALPALGADQFDPKKAKQLSTYFNWFIFSLTIGSILGVTLVVWISTDKGWDWAFAVCAIALLLSIFFISLGNPFYRNNLPKGSPLLRFLRVFVASFRNRKLPIPENADELHEIYQDKEDDNLHHEILQRTDQFKFLDRAAVIRRTEDDDNDGSNSGSEWRVCTVTEVEETKILIRMLPIILTTIFMNTCLAQLQTFSVQQSVTMDRDFIGFEIPGPSVPAIPLLFMFILIPLYDRVFVPIARRVTGIPTGISHLQRIGIGLVLSAISMTVAGFVEKKRRNVAIQHDMVDSQDALPISVFWLGYQYAIFGAADMFTLVGMLEFFYAESSAGMKALSTAISWCSLAFGYYLSSVVVEIVNKVSGGWLANNNLNRDKLENFYWLLAGLSVVNFGVYVMCASWYKYKNVEMIKKDDAST
modifications: ABC+PTR Transporter amino acid sequence (of the 12 identified gene products)
effect on the uptake of CBD in tobacco BY-2 cells (tobacco BY-2 cells [3]; 4 hour uptake, FIG. 5): strong effect | fluorescence (FDA viability) of transporter-expressing BY2 cells in the presence of CBD (tobacco BY-2 cells [1]; FIG. 6A bottom): strong decrease | cell death in response to CBD of BY-2 cells expressing the transporter (tobacco BY-2 cells [1]; FIGS. 6A-B): increased cell death | inhibition of yeast growth in response to CBD, transporter-expressing yeast vs control yeast (yeast cells [2]; FIG. 2): reduced inhibition of growth | growth inhibition by CBD, time course of yeast growth vs empty vector yeast (yeast cells [2]; 12 hour period, FIGS. 1A-B): reduced growth inhibition | net uptake of CBD into yeast cells compared to control (empty vector) yeast (yeast cells [4]): reduced net uptake of CBD

B3: T-792-1: Cannabis ABC-G transporter gene product, amino acid SEQ ID NO: 47 (protein)
chain: MASVTPSTTIDQEHYHNKKVTISRTTSTTSSNNNTNHGNPRITVVEIETANNRNASYRSSIFGADHEVSLPVVEDHQGVFLTWQDLWVTVSSGKNSNRPILRGLTGYAKPGELLAIMGPSGCGKSTLLDALAGRLNANTRQSGDILINGNKQTLAYGTSAYVTQEDTLLTTLTVREAVHYSAQLQLPDSMSSAEKKERAEMTIREMGLTDAVNTRIGGSGLGTGSKGLSGGQKRRVSICIEILTRPKLLFLDEPTSGLDSAASYYVMSSIASLDIQSRRGGGAGGRRTVVASIHQPSSEVFQLFNTLCLLSAGKIVYFGPASAANEFFTMSGFPCPSLQNPSDHFLKTINKDFDKVQKDLEQGLPIRGRPTVEEAIETLVKSYKASENCQLVQQQVSQICNKKNKSVGLMEKKRSHAGFISQCGVLTRRSFKNMYRDLGYYWFRLVIYIGLAIGLGTIFCNIGHSDGSVEARASLIMYVASFLTFMTIGGFPSFVEDMKVFGRERLNGHYSVTSFVMGNTISAQPYLVLIALIPGALAYFPPGLRGGFEHFIYFVLVLYACMMLVESLMMIVAALVPNFLLGIITGAGIQGFMMLAGGFFRLPNDLPDPFWRYPVFYISFHRYAFQGLYKNEFKGLMFVDEILGKSHKISGDEILRNKYQVNMSYSKWVDFVLLLSMVFAYRVMFLLILKISENYKTISAAFAFGRRKPSTQVMENPTATPPHA
modifications: ABC+PTR Transporter amino acid sequence (of the 12 identified gene products)
inhibition of yeast growth in response to CBD, transporter-expressing yeast vs control yeast (yeast cells [2]; FIG. 2): reduced inhibition of growth | CBD levels in yeast cells compared to the control (yeast cells [4]; 5 hour period, FIG. 3B): increase in CBD levels
